Type in all cases: biochemical, Quillaja saponaria
Assay [1] is described as follows: Experiment 4-2: screening of glucosidases for deglycosylation with purified QS-18 (1 mg/ml) at pH 6 and 30 deg C. As to conditions: pH 6, 30 degC, 18 hrs, clarified lysate, LCMS/MS. The procedure, abridged:
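Clarified lysates of glucosidase-expressing cells in 100 mM potassium phosphate pH 6 were incubated 18 h at 30 °C with QS-18 at 1 mg/ml final. Reactions quenched with MeCN; deglycosylation activity determined by LC-MS/MS.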

A short description of assay [2]: Experiment 4-4: screening of glucosidases for deglycosylation of QS-18 in crude bark extract (1 in 20 dilution) to QS-21. The conditions noted are these: CBE 1 in 20 dilution, pH 6, 25 degC, 18 hours; % conversion of Middle Peak by UV HPLC. On the procedure:
Lysates were prepared as in Experiment 4-2.
Crude bark extract (CBE) was adjusted to pH 6 by dropwise addition of 2M NaOH with stirring. 25 uL of clarified lysate was transferred to a reaction plate, 22.5 ul of 100 mM potassium phosphate buffer pH 6 was added, 2.5 ul CBE at pH 6 was added. Reaction plates were sealed, incubated at 25 degC with shaking for 18 hours, then quenched by addition of 50 uL acetonitrile (MeCN). Quenched reaction plates were re-sealed and incubated at 20 degC with shaking for 10 min. The reaction plates were centrifuged (10 min, 4 degC) and analysed by UV HPLC with the method below:
Three key peaks of interest are apparent using this chromatography: Left Peak (retention time approximately 2.30-2.35 min) comprising mainly QS-17 family components; Middle Peak (retention time approximately 2.37-2.42 min) comprising mainly QS-18 family components and desglucosyl-QS-17 family components; and Right Peak (retention time approximately 2.44-2.50 min) comprising mainly QS-21 family components. Peak identity was supported by MS/MS.
Enzyme activity is calculated as the % conversion of the Middle Peak present in the crude bark extract: […]

A short description of assay [3]: Experiment 4-1: screening of glucosidases for deglycosylation with purified QS-18 (0.04 mg/ml) at pH 7.5 and room temperature. As to conditions: pH 7.5, room temperature, 20 h, clarified E. coli lysate, QS-18 2150 to QS-21 1988 by LCMS/MS. The procedure, abridged:
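Candidate glucosidases expressed in E. coli BL21(DE3) (pET24b+, autoinduction, 20 °C for 20 h); clarified lysates in 100 mM potassium phosphate pH 7.5 incubated with QS-18 (0.04 mg/ml final) 20 h at room temperature. Quenched with MeCN, analysed by LC-MS/MS for % conversion; hits >3 S.D. above negative control.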

B1: 9 (protein, listed as Streptomyces rubrolavendulae)
chain: MTADEAVEAALGALDLDTKARLLAGQDMWTLPAVPAVGLASLVMSDGPVGVRGVRWTADDPSVTLPSPTALAACWDPELARRAGRLLAQEARRKGVHVVLAPTVNLHRSPLGGRHFEAYSEDPYLTAETGAACVRGIQDGGVAATVKHFVANDAETDRFTVDNTVPPRALRELYLAPFEAIVRCARPWALMAAYNQVNGVTMTENRHLQTEVLRDAWGFDGVVVSDWFAARSTTGALVGGLDVAMPGPHTVYGDALAAAVRAGDVDEALVDRSVRRVLRLAARVGALEGAEPAVPSPPAHVDGEALAREIAHRSFVLVRNECGALPLDPARSRRVALVGAAARDARVLGGGSAHVFPARTVSPLDGLAAALPEGTELVHARGADLSGEPAPAGPGFALRAVCRDAEGTVLADVPLPSGQIQWIGADLPGGVTHEALHTVEVTGTYTPREGGAHGFGTRGVGAFTLTVGGRVLYDGTREAEPAGDPFEAFAGTPAEHGAADLAEGVPVEVSLRHTVDRDRPAPLPAVVFSLLHRPPRRDPDELIAEAVEAARGADAAVVVVATTERVESEGFDRADLRLPGRQDDLVRAVAAANPRTVVVVNAGAPVEMPWRDDVAAVLLTWFPGQEGGAALADVLLGAEEPGGRLPTTWPAALADAPVTAVTPVDGELRYEEGPFIGYRAWDRAPGGPAPAYPFGHGLGYTTWEYESLVVTPATARVRVRNTGTRPGREVIQLYVAPRADLAERPARWLVGFASVTAGPGARAEAEIRFAPRPFDVWDEEAGAWTAVPGQYEIRAGRSLTDTRLTVTLELD
B1: the “Expt 4-2 % conv” value in assay [1] came to 0.9%. In assay [2], the “Expt 4-4 % conv” value is recorded as under 3%. Besides, the “Expt 4-1 % conv” value in assay [3] is recorded as 9.2%.

B2: 240 (protein, listed as Acidipropionibacterium acidipropionici)
chain: MTELTDLPQYLLIRLLSGADDWRTVAAGEVGVRSLHLSDGPHGLRVPDVKGGSLPATCFPTAVTLGASWDRDLAEEVGGALAVEAGALGVDVVLGPGMNIKRHPLGGRNFEYLSEDPVVSGELAAAMVRGIQGRGVAACVKHFAVNNQETMRLCVDAVVDERTLHEIYLAAFETVVRTARPAAVMASYNEINGTAATTNRSLITEVLRGRWGFDGLVMSDWGAVWDRVAALEAGLDLEMPSSAGAFDRSVAAALDSGRLGLDAVLTSVSRLVGLQNRISPPRIDRIPADEHDALARRAATAGTVLAANDGILPLAAGSKVAVIGAFAARPRYQGSGSSQVNPTRVTGLLEALGAKDVEVGYARGYDPEEQRTDAVLVAEAAELAAASDVAVVVTGPPEELESEGYDRTGMDLPAQHDALVRAVLAANPRTVIVVCSGSPVALPWADRAAAVVLAGLGGQAGGGALADVLVGDAEPGGRLAETWPHDLSEVASDPWFPGTGAMVQYREGSAIGYRHTATNGVEPAFCFGHGLSYTRFDWRDAVLTEPWIVAGDGLSVDVEVANVGDRAGSDVVQVYLSDRTGVVSRPRRWLAGFAKVRLEAGQSRRVQVAVGARELGFWDVEKHDWVVPSGHFDVELGRSAHDIVATLDLVVSEGADHAPERAWTPLIAEDDEAFAARLGHEIPRPAATTPFTARSTLGQVRHTPLGGLLHAAAMRRLAAGVRDPRFRRMMEHTVDELPLRNLPSMTKGLVPLESVSLIVDVLNGAPDEILRRSFGGALGLGRGVVDAGRGLWGELSSRIGRLGR
In the case of B2, the “Expt 4-2 % conv” value in assay [1] is on record as 0.5%. The “Expt 4-4 % conv” value in assay [2] is under 3%. Also, in assay [3], the “Expt 4-1 % conv” value came out at 9.0%.

B3: 325 (protein, listed as Ilumatobacter coccineus)
chain: MTGTSTGARRGIICGVIDIDAALNALSLADKCRLVAGETNWRTKAFPEAGIPQLKMSDGPTGIRGEGHGSAGTPGVAVPAGITLGASWDPDLLGEIGDLLGREAVRKRAHVLLGPTVNLHRTPIGGRTFECYSEDPELSGALAASYVRAVQRHDVAVTVKHFVCNDTEIDRMTVDVDVDERPLRELYLRPFERAVKEGGAWGIMTAYNRVAGEFAAQNRRLLTDILRGEWGFDGFAVSDWFGVHEPVGAANAGLTLEMPAPVRVYGDRLLAAIEAGSVTEETVDGLVRDLLGVMNRTKADERNCDEPELSIDDPAERALTRRAAIGGTVLLRNEPIDSSGHPVLPVALDGLASMAVIGPNAVIDRSMGGGSASLTPFDHRTLLDALSDRVGPDTDVRYEPGVRIDRLTPIVRSARLRTPDGADGLRLEYVNGTDWDAPATIDTVTSSSMIRFFGTTPDEIDATAFGARVSGSFVPEIDGPHEIGVVSTGPVTMTARTGDGDPIVVVDDPDMLLPRTREFFGYGSEESVATVECRAGEPVHLEVKWRTSAENGFAALRIGVRPPEPSDLIDRAVAAAAEADVAVVVVGTNDEWETEGFDREVMSLPGRQDELVERVVAANPNTVVVVNAGSPVSMDWAADDHPRPAAAIVTSFFAGQEQAEAMVDVLTGVADPAGRLPITYPQRLADTPAFEHHEPVRSAGRPPQQRYAEGLFIGHRHYEANDVAPRFWLGHGLSYGSVEWSTPTASRTSDTAASLDDSPIVVSLSLTNTSDRDATSVVQCYVAPIAPSVERPVRELKAWAKESLPAQARRDVSIELGSSAFRHWDEESGAWKVEPGEYDIVVATSADPDDEHERLRITIT
For B3, the “Expt 4-2 % conv” value in assay [1] was 0.9%. Also, the “Expt 4-4 % conv” value in assay [2] is under 3%. For the same molecule, the “Expt 4-1 % conv” value in assay [3] is reported as 6.3%.

B4: 338 (protein, listed as Hungateiclostridium thermocellum)
chain: MAVDIKKIIKQMTLEEKAGLCSGLDFWHTKPVERLGIPSIMMTDGPHGLRKQREDAEIADINNSVPATCFPSAAGLACSWDRELVERVGAALGEECQAENVSILLGPGANIKRSPLCGRNFEYFSEDPYLSSELAASHIKGVQSQGVGACLKHFAANNQEHRRMTVDTIVDERTLREIYFASFENAVKKARPWVVMCAYNKLNGEYCSENRYLLTEVLKNEWMHDGFVVSDWGAVNDRVSGLDAGLDLEMPTSHGITDKKIVEAVKSGKLSENILNRAVERILKVIFMALENKKENAQYDKDAHHRLARQAAAESMVLLKNEDDVLPLKKSGTIALIGAFVKKPRYQGSGSSHITPTRLDDIYEEIKKAGGDKVNLVYSEGYRLENDGIDEELINEAKKAASSSDVAVVFAGLPDEYESEGFDRTHMSIPENQNRLIEAVAEVQSNIVVVLLNGSPVEMPWIDKVKSVLEAYLGGQALGGALADVLFGEVNPSGKLAETFPVKLSHNPSYLNFPGEDDRVEYKEGLFVGYRYYDTKGIEPLFPFGHGLSYTKFEYSDISVDKKDVSDNSIINVSVKVKNVGKMAGKEIVQLYVKDVKSSVRRPEKELKGFEKVFLNPGEEKTVTFTLDKRAFAYYNTQIKDWHVESGEFLILIGRSSRDIVLKESVRVNSTVKIRKRFTVNSAVEDVMSDSSAAAVLGPVLKEITDALQIDMDNAHDMMAANIKNMPLRSLVGYSQGRLSEEMLEELVDKINNVE
Turning to B4, the “Expt 4-2 % conv” value in assay [1] came out at 0.5%. Further, the “Expt 4-4 % conv” value in assay [2] is under 3%. Also, in assay [3], the “Expt 4-1 % conv” value is recorded as 6.3%.

B5: 133 (protein, listed as Aquimixticola soesokkakensis)
chain: MTDSTATPPDPIAAKLTFARGRDYWTTQAAPEIGLRALRFADGPHGLRVQDDENPDHLGLERSAPATCFPPAVTLASSWDAALIEEVGAALGREARAAGVDVVLGPGLNLKRSPLCGRNFEYYSEDPMLSGLLAGASARGIQSVGVGACLKHFAANSQEGDRNRISADIDERSLRELYLRNFQLALEASGAWSIMTSYNRINGLHASQDPWLLTQVLREEWGFDGLVISDWGGVYDPVAALKAGMDLRMPGGALDDRLIAAHARGEIAEGDLDRVIANTTRLAERTRPRDTDVPPDVEAHHALVRRAAAESSVLLKNDGVLPLDPARYPKVAILGELARTPRIQGSGSSRVHPRRVVAPLDVLRERLAQSGAQVAFAPAYGLQNGPADAALITEALQVARDADIVLLFSGLTDAAEAEGSDRTHIDLPDQQLTLLAALADCDTPLVVSLANGAVVRSTQWRDTAQAIVEFWLSGQAHGETVADVLLGDVPPAGRLAQTIPRRLQDTPAFLDFPGEHRHVRHSEGLHIGYRWYDARDLAVDYPFGHGLSYTSFDYEELEIDVRASDDDIAFVARLTLRNSGARAGSEVVQLYASDPSTAYQTPPRELRGWQKVHLEAGESCAVSIPVKRAHLGHWHSGLKRWVFAGGPMTLHVGASSRDLRLTCETELHGEALPVVLTPWSLFGEWMQHPVMGPRIEALFASRGGVKGRAGDLLSDPAGRNTVYINPLAMLAQFPGVPLDQSDLETLCAEAAALA
As for B5, in assay [1], the “Expt 4-2 % conv” value is 0.4%. For the same molecule, the “Expt 4-4 % conv” value in assay [2] was under 3%. Moreover, the “Expt 4-1 % conv” value in assay [3] worked out at 3.7%.

B6: 116 (protein, listed as Streptomyces netropsis)
chain: MPDDPVDVLDLDTKARLLSGQDMWSLPAVPRIGLRSIVMSDGPVGVRGVRWTADDPSLALPSPTALAATWDPALARRVGRLLAAEARRKGVHVLLAPTVNLHRSPLGGRHFEAYSEDPYLTARIGTGYVRGVQDGGVAAVVKHFVANDAETERFTVNNKVSARALRELYLAPFEAIVKDARPWGVMAAYNQVNGVTMTEHGHLQNDVLRGEWGFDGIVVSDWLAARDTVRAALGGLDVAMPGPVTVYGPALAAAVRAGDVPESVVDDAVRRVLRLADRVGALGEATRARPSAPDGRALAREVAARSFVLVRNAPVRGAPALPLDPAPGLRVALLGGAARDARILGGGSAQVFPARVVSPLDGLRAALPEGAVTYAVGAEPGDELLPAGAGFTLRAVCRDAAGRMLGEERMPSGMVQWLGDLPAGVGYEALRTVELTGTFTPRESGPHVFGTKGVGAFRLVVGGRTLFDGEQGADHADPFEAFLGSPVERGRVVLAAGTAVEVSLTCVVAEPDGAPIEAVGFCLLHREPERDAEELLAEAVAVAASADAAVVVVATTERVESEGFDRTTLALPGRQDELVARVAAVSPRTVVVVNSGSPVELPWRDDVAAVLLGWFPGQEAGGALADVLLGGCEPGGRLPTTWPVRLADAPVTRVAPVGGELAYAEGLFIGYRAWEKARATPAYAFGHGLGYTDWSYETLDMGGTGTARVRVRNTGSRPGREVVQVYLAVPPGDRAGRPVRRLAGFASVEAGPGETVEAVVALDPRAFEVWDDEAAGWRRIPGTYTAEAGRSIADRRLTAPVEVA
For the molecule B6, the “Expt 4-2 % conv” value in assay [1] turned out to be 0.5%. Moreover, the “Expt 4-4 % conv” value in assay [2] is listed as under 3%. The “Expt 4-1 % conv” value in assay [3] is reported as 4.7%.
